{"source": "patent US8105802B2", "about": "“Method of producing microbial transglutaminase” (Ajinomoto Co., Inc., priority 2003, dated 2012)", "key": {"SVP70": {"system": "SVP70", "assay": "Inhibitory activities of various compounds to SVP70 (cleavage of peptide GPSFRAPDS)", "format": "biochemical, Streptoverticillium mobaraense", "conditions": "analogously to (3)-vi); concentrations shown in FIG. 5", "description": "(§1) The enzyme solution was added to 20 mM sodium phosphate buffer containing peptide GPSFRAPDS (Peptide Institute) (SEQ ID NO: 11) to yield 170 μl of total liquid volume, and it was reacted at 30° C. for 10 minutes, followed by heating at 95° C. for 5 minutes to terminate the reaction. 80 μl of this solution was analyzed by HPLC under the following conditions and its activity was calculated based on the decreased amount of the substrate.\n(§2) To 20 mM sodium phosphate buffer (pH 7.0) containing various compounds at the concentrations shown in FIG. 5, the purified enzyme solution was added and left for 60 minutes at room temperature. Then Gly-Pro-Ser-Phe-Arg-Ala-Pro-Asp-Ser (SEQ ID NO: 11) was added as a substrate and reacted for 10 minute at 30° C. The relative activity by adding each compound was calculated based on the Gly-Pro-Ser-Phe-Arg-Ala-Pro-Asp-Ser (SEQ ID NO: 11) cleavage activity in the absence of compounds as 100%.\nThe inhibitory activities of various compounds to SVP70 were examined analogously to (3)-vi)."}, "SVP35": {"system": "SVP35", "assay": "Inhibitory activities of various compounds to SVP35 (cleavage of peptide GPSFRAPDS)", "format": "biochemical, Streptoverticillium mobaraense", "conditions": "concentrations shown in FIG. 5; 60 minutes at room temperature, then substrate 10 minute at 30° C., pH 7.0", "description": "as §1, §2"}, "insulin B and pro-MTG": {"system": "insulin B and pro-MTG", "assay": "Substrate specificity (cleavage points, HPLC and sequencing of fragments)", "format": "biochemical", "conditions": "30° C., 2 hours, pH 7.5", "description": "1 mg/ml of insulin B solution and pro-MTG solution prepared in 20 mM Tris-HCl buffer (pH 7.5) containing 5 mM calcium chloride and 0.01 mM zinc chloride was used as a substrate, and an enzyme solution was added to the solution to react at 30° C. for 2 hours, and then peptide fragments were separated by HPLC under the following conditions:\nThe amino acid sequences of the obtained peptide fragments were analyzed by PPSQ-10 (Shimadzu Co. Ltd.) to characterize the sequences of the cleavage points for SVP35.\nThe substrate specificity was examined similarly as described in (3)-i)."}, "[1]": {"system": "Gly-Pro-Ser-Phe-Arg-Ala-Pro-Asp-Ser (SEQ ID NO: 11)", "assay": "Optimum pH of the protease (peptide cleavage in GTA buffer pH 3 to pH 10)", "format": "biochemical", "description": "as §1\nIn 0.15 M GTA buffer (buffered by 3,3-dimethyl glutaric acid, Tris (hydroxy methyl) amino methane, 2-amino-2-methyl-1,3-propanediol) from pH 3 to pH 10, SVP35 was allowed to act on Gly-Pro-Ser-Phe-Arg-Ala-Pro-Asp-Ser (SEQ ID NO: 11) as a substrate at 30° C. for 10 minutes.\nThe Optimum pH of SVP70 was examined similarly as (3)-ii)."}, "[2]": {"system": "Gly-Pro-Ser-Phe-Arg-Ala-Pro-Asp-Ser (SEQ ID NO: 11)", "assay": "Temperature stability of the protease", "format": "physicochemical", "conditions": "15 minutes; activity treated at 4° C. defined as 100%", "description": "To 10 μl of the purified enzyme solution, 40 μl of 20 mM Tris-HCl buffer (pH 7.5) containing 5 mM calcium chloride and 0.01 mM zinc chloride was added to treat at 4° C. or at from 30° C. to 70° C. for 15 minutes, and then cooled by ice, added 250 μl of 20 mM sodium phosphate buffer (pH 7.0). To this enzyme solution, Gly-Pro-Ser-Phe-Arg-Ala-Pro-Asp-Ser (SEQ ID NO: 11) was added as a substrate and reacted at 30° C. for 5 minutes. When the activity treated at 4° C. was defined as 100%, the remaining activity at each temperature was calculated. […] (see FIG. 4)."}, "pro-MTG": {"system": "pro-MTG", "assay": "Conversion of pro-MTG into active MTG, substrate:enzyme 200:1 (SDS-PAGE, hydroxamate method)", "format": "biochemical, Streptoverticillium mobaraense", "conditions": "substrate:enzyme=200:1, 30° C.", "description": "Using pro-MTG (1 mg/ml) expressed by Corynebacterium glutamicum as a purified substrate, the neutral protease (SVP35, SVP70) from Streptoverticillium mobaraense or the neutral metalloprotease SGMP II from Streptomyces griseus was mixed in the ratio of the substrate:the enzyme=200:1, the mixture was reacted at 30° C. After 0, 1, 2, 4, 7, 20 hours, the reaction mixture was sequentially picked up, and the aliquots of the reaction mixture were mixed with SDS-PAGE sample buffer and heated at 95° C. for 3 minutes, and then subjected to SDS-PAGE according to Laemmli's method (Nature, 227, 680-685 (1970)). […] In addition, SGMP II was purified from actinase (Kakenseiyaku Co. Ltd.) according to the reference method (J. Biocem., Vol. 110, p. 339-344, 1991)."}, "[3]": {"system": "Gly-Pro-Ser-Phe-Arg-Ala-Pro-Asp-Ser (SEQ ID NO: 11)", "assay": "Optimum temperature of the protease", "format": "biochemical", "description": "To the purified enzyme solution diluted with 20 mM Tris-HCl buffer (pH 7.5) containing 5 mM calcium chloride and 0.01 mM zinc chloride Gly-Pro-Ser-Phe-Arg-Ala-Pro-Asp-Ser (SEQ ID NO: 11) was added and reacted at pH 7.0, between 5° C. and 65° C. for 10 minutes. As a result, it was shown that the Optimum temperature of SVP35 was about 45° C. and it had high activity within the range of 40° C. to 50° C.\nThe Optimum temperature of SVP70 was examined similarly as (3)-iv). As a result, it was shown that the Optimum temperature of SVP70 was within the range from about 50° C. to 55° C., especially around 55° C. (see FIG. 3)."}, "[4]": {"system": "Gly-Pro-Ser-Phe-Arg-Ala-Pro-Asp-Ser (SEQ ID NO: 11)", "assay": "pH stability of the protease", "format": "physicochemical", "description": "To 10 μl of SVP35 purified enzyme solution, 40 μl of each pH of 0.15 M GTA buffer from pH 3 to pH 10 was added, left at 4° C. overnight, followed by addition of 0.1 M sodium phosphate buffer (pH 7.0) to the liquid volume of 400 μl, and was adjusted to pH 7.0. To these enzyme solutions, Gly-Pro-Ser-Phe-Arg-Ala-Pro-Asp-Ser (SEQ ID NO: 11) was added as a substrate, and reacted at pH 7.0, at 30° C. for 10 minutes.\nThe pH stability was examined similarly to (3)-iii)."}, "[5]": {"conditions": "activity at pH 7.0 defined as 100%"}}, "data": [{"molecule": "O[C@H](CS)[C@H](O)CS", "note": "(racemic) [dithiothreitol]", "values": [{"measurement": "inhibition of SVP70 activity", "setting": "SVP70", "value": "strong inhibitory action"}]}, {"molecule": "c1cnc2c(c1)ccc1cccnc12", "note": "[1,10-phenanthroline]", "values": [{"measurement": "inhibition of SVP70 activity", "setting": "SVP70", "value": "strong inhibitory action"}, {"measurement": "inhibition of SVP35 Gly-Pro-Ser-Phe-Arg-Ala-Pro-Asp-Ser cleavage activity", "setting": "SVP35", "value": "strongly inhibited"}]}, {"molecule": "O=C(O)CN(CCN(CC(=O)O)CC(=O)O)CC(=O)O", "note": "[ethylene diamine tetraacetic acid]", "values": [{"measurement": "inhibition of SVP70 activity", "setting": "SVP70", "value": "strong inhibitory action"}, {"measurement": "inhibition of SVP35 Gly-Pro-Ser-Phe-Arg-Ala-Pro-Asp-Ser cleavage activity", "setting": "SVP35", "value": "strongly inhibited"}]}, {"molecule": "NC(N)=O", "note": "[urea]", "values": [{"measurement": "inhibition of SVP70 activity", "setting": "SVP70", "value": "strong inhibitory action"}]}, {"molecule": "CC(C)C[C@H](NP(=O)(O)O[C@@H]1O[C@@H](C)[C@H](O)[C@@H](O)[C@H]1O)C(=O)N[C@@H](Cc1c[nH]c2ccccc12)C(=O)O", "note": "[phosphoramidon]", "values": [{"measurement": "inhibition of SVP70 activity", "setting": "SVP70", "value": "strong inhibitory action"}, {"measurement": "inhibition of SVP35 Gly-Pro-Ser-Phe-Arg-Ala-Pro-Asp-Ser cleavage activity", "setting": "SVP35", "value": "strongly inhibited"}]}, {"molecule": "SVP35: neutral metalloprotease of about 35,000 from the cell surface of Streptoverticillium mobaraense IFO13819 (SEQ ID NO: 6) (protein, Streptoverticillium mobaraense) VLRLTATPRTTALRAAALVASAAMVVVGVQTGSASASGDRDSGGLPLTLSASQRTAAIQEAQSGASATAAKIGLSGKEKLIARDVVKDADGTVHTRYERTYDGLPVLGGDLIVHEAKAGRSVTKANDATIALPSTDASLAPAAAKKSALSAAADQKTAKADGQAPRKVVWAAQGKPVLAYETVVTGVQKDGTPSELHVITDAASGKKLYQYEAIETGTGTSTYSGTVPLTTTKSGSQYQLNDGARGGHKTYDLNQGTSGTGSLFTNSTDTWGGGRQTAGVDAHYGAAVTWDFYKNVFGRNGIRNDGKAAYSRVHYGNSYVNAFWSDSCFCMTYGDGQNNKNPLTALDVAAHEMSHGVTAATAKLVYSGESGGLNEATSDIFGTAVEFYANNKTDVGDYLIGEKINIYGDGKPLRYMDKPSKDGKSKDSWYSGIGGVDVHYSSGPANHFFYLLSEGSGKKTINGVDYDSPTADGSKVTGIGRDKAQKIWYKALTTQFTSNTNYAKARTGTLNAAASLYGNNSAEYKAVAAAWSAINVK", "values": [{"measurement": "amino acids recognized at the cleavage site", "setting": "insulin B and pro-MTG", "value": "aromatic amino acids and hydrophobic amino acids with bulky side-chains positioned at P′ 1"}, {"measurement": "cleavage points (residue before which the substrate is cleaved)", "setting": "insulin B and pro-MTG", "value": "especially Phe, often Leu, sometimes Tyr, Trp, Ile, Val"}, {"measurement": "Optimum pH", "setting": "[1]; 0.15 M GTA buffer pH 3 to pH 10, 30° C., 10 minutes", "value": "around 7.0"}, {"measurement": "activity at pH 6.0-8.0", "setting": "[1]; [5]", "value": "≥ 70", "unit": "%"}, {"measurement": "activity at pH 6.5-7.5", "setting": "[1]; [5]", "value": "≥ 80", "unit": "%"}, {"measurement": "remaining activity after treatment at 50° C.", "setting": "[2]", "value": 80, "unit": "%"}, {"measurement": "remaining activity after treatment at 60° C.", "setting": "[2]", "value": "lost its activity"}, {"measurement": "transglutaminase (TG) activity of the picked up fraction, hydroxamate method", "setting": "pro-MTG", "value": "sufficient activity was confirmed"}, {"measurement": "conversion of pro-MTG to the mature form (SDS-PAGE)", "setting": "pro-MTG; 0-20 hours", "value": "converted to the mature forms"}, {"measurement": "reduction of produced MTG after long-term reaction", "setting": "pro-MTG; up to 20 hours", "value": "not reduced even after a long-term reaction"}, {"measurement": "activity within 40° C. to 50° C. relative to that at 45° C.", "setting": "[3]; pH 7.0, 10 minutes", "value": "≥ 80", "unit": "%"}, {"measurement": "Optimum temperature", "setting": "[3]; pH 7.0, between 5° C. and 65° C., 10 minutes", "value": "about 45 °C"}, {"measurement": "activity after treatment at pH 4-10", "setting": "[4]; activity at pH 4.0 defined as 100%", "value": "≥ 90", "unit": "%"}, {"measurement": "pH Stability (stable pH range)", "setting": "[4]; left at 4° C. overnight at each pH, then reacted at pH 7.0, 30° C., 10 minutes", "value": "4-10"}]}, {"molecule": "Streptomyces subtilisin inhibitor (SSI): Streptomyces subtilisin inhibitor derived from actinomycetes (protein) DAPSALYAPSALVLTVGKGVSATTAAPERAVTLTCAPGPSGTHPAAGSACADLAAVGGDLNALTRGEDVMCPMVYDPVLLTVDGVWQGKRVSYERVFSNECEMNAHGSSVFAF", "values": [{"measurement": "inhibition of SVP70 activity", "setting": "SVP70", "value": "strong inhibitory action"}, {"measurement": "inhibition of SVP35 Gly-Pro-Ser-Phe-Arg-Ala-Pro-Asp-Ser cleavage activity", "setting": "SVP35", "value": "strongly inhibited"}]}]}
